Experimental data reported in PMC4116148 (Biochemistry, 2014).
Like-named read-outs stand apart in the source and are kept apart here. Non-standard residues stand in square brackets, D forms with d. fluorescein = fluorescein: fluorescein label on the Lys side chain; code γ = not defined here

T1: cNPF1 (head-to-tail cyclic)
T1 chain: YNPFEEGG

T2: cAPA (head-to-tail cyclic)
T2 chain: YAPAEEGG

T3: cNPF1B (SMILES CC(=O)NCCCC[C@@H]1NC(=O)CNC(=O)[C@H](CCC(=O)O)NC(=O)[C@H](CCC(=O)O)NC(=O)[C@H](Cc2ccccc2)NC(=O)[C@@H]2CCCN2C(=O)[C@H](CC(N)=O)NC(=O)[C@H](Cc2ccc(O)cc2)NC1=O)
T3 chain: cyclo(YNPFEEGK(Ac))

T4: cNPF3Flu
T4 chain: cyclo(YNPFEEK(fluorescein))

T5: cNPF5Flu
T5 chain: cyclo(YNPFEAGK(fluorescein))

T6: cNPF4Flu
T6 chain: cyclo(YNPFAEGK(fluorescein))

T7: cNPF6Flu
T7 chain: cyclo(YNPFEQGK(fluorescein))

T8: cAPAFlu
T8 chain: cyclo(YAPAEEGK(fluorescein))

T9: cNPF2Flu (reading uncertain)
T9 chain: cyclo(YNPFEE[code γ]K(fluorescein))

T10: cNPF1Flu
T10 chain: cyclo(YNPFEEGK(fluorescein))


Legend:
dynamin GTPase activity = conditions: biochemical assay of dynamin GTPase activity; cited from earlier work
cNPF1 [1] = biological target: T1, cNPF1; assay: ITC
cAPA = biological target: T2, cAPA; assay: fluorescence polarization competition
cNPF1 [2] = biological target: T1, cNPF1; assay: fluorescence polarization competition
cNPF1B = biological target: T3, cNPF1B; assay: fluorescence polarization competition
cNPF3Flu [3] = biological target: T4, cNPF3Flu; assay: fluorescence polarization
cNPF5Flu [4] = biological target: T5, cNPF5Flu; assay: fluorescence polarization
cNPF4Flu [5] = biological target: T6, cNPF4Flu; assay: fluorescence polarization
cNPF6Flu [6] = biological target: T7, cNPF6Flu; assay: fluorescence polarization
cAPAFlu = biological target: T8, cAPAFlu; assay: fluorescence polarization
cNPF2Flu [7] = biological target: T9, cNPF2Flu; assay: fluorescence polarization
cNPF1Flu [8] = biological target: T10, cNPF1Flu; assay: fluorescence polarization
cNPF3Flu [9] = biological target: T4, cNPF3Flu; assay: fluorescence polarization
cNPF5Flu [10] = biological target: T5, cNPF5Flu; assay: fluorescence polarization
cNPF4Flu [11] = biological target: T6, cNPF4Flu; assay: fluorescence polarization
cNPF6Flu [12] = biological target: T7, cNPF6Flu; assay: fluorescence polarization
cNPF2Flu [13] = biological target: T9, cNPF2Flu; assay: fluorescence polarization
cNPF1Flu [14] = biological target: T10, cNPF1Flu; assay: fluorescence polarization

Row | Molecule | IC50 (dynamin GTPase activity) | Kd (cNPF1 [1]) | IC50 (cAPA) | IC50 (cNPF1 [2]) | IC50 (cNPF1B) | Kd (cNPF3Flu [3]) | Kd (cNPF5Flu [4]) | Kd (cNPF4Flu [5]) | Kd (cNPF6Flu [6]) | Kd (cAPAFlu) | Kd (cNPF2Flu [7]) | Kd (cNPF1Flu [8]) | Kd (cNPF3Flu [9]) | Kd (cNPF5Flu [10]) | Kd (cNPF4Flu [11]) | Kd (cNPF6Flu [12]) | Kd (cNPF2Flu [13]) | Kd (cNPF1Flu [14])
1 | O=C(N/N=C/c1ccc(O)c(O)c1)c1cc2ccccc2cc1O [dynasore] | ~15 µM | – | – | – | – | – | – | – | – | – | – | – | – | – | – | – | – | –
2 | EHD1 EH domain EH (protein) VGKDKPTYDEIFYTLSPVNGKITGANAKKEMVKSKLPNTVLGKIWKLADVDKDGLLDDEEFALANHLIKVKLEGHELPADLPPHLVPPSKRRHE | – | 9.9 µM | > 450 µM | 49.2 µM | 100 µM | 11.3 µM | 8.7 µM | 17.4 µM | 12.8 µM | > 67 µM | 4.5 µM | 3.3 µM | 57.8 µM | 28.3 µM | 46.7 µM | 34 µM | 20.5 µM | 16.8 µM
